From publication PMC6586535 (Leukemia & lymphoma, 2018)

Target: T1, aryl hydrocarbon receptor (human (endogenous in HL-60), UniProt P35869 11-848)
T1 sequence (looked up): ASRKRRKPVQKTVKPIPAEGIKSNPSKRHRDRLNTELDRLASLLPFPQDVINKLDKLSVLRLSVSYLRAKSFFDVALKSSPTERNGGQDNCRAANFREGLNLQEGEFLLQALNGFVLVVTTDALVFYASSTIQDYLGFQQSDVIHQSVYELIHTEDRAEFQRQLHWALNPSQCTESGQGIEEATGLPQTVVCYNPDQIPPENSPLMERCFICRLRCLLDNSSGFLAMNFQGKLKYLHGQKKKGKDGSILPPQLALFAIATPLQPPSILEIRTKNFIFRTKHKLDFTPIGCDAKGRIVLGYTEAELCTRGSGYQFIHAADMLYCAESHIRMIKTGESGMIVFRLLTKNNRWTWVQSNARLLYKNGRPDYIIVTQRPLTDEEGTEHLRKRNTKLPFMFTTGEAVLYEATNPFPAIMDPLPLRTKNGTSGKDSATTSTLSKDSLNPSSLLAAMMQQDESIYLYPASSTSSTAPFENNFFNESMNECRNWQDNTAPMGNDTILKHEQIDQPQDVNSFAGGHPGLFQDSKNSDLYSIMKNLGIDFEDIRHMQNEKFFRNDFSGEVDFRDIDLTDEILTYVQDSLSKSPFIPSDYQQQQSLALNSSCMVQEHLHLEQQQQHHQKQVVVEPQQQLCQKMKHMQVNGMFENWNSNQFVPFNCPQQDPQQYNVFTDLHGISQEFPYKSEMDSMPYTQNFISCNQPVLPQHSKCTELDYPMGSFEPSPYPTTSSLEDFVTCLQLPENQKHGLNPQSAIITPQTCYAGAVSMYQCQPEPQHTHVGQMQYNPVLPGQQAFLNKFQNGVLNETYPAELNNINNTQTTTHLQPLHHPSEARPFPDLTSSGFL
Assay: FRET or BRET

B1: Cbl-b (natural protein, human (endogenous in HL-60), UniProt Q13191 1-982, looked up)
chain: MANSMNGRNPGGRGGNPRKGRILGIIDAIQDAVGPPKQAAADRRTVEKTWKLMDKVVRLCQNPKLQLKNSPPYILDILPDTYQHLRLILSKYDDNQKLAQLSENEYFKIYIDSLMKKSKRAIRLFKEGKERMYEEQSQDRRNLTKLSLIFSHMLAEIKAIFPNGQFQGDNFRITKADAAEFWRKFFGDKTIVPWKVFRQCLHEVHQISSGLEAMALKSTIDLTCNDYISVFEFDIFTRLFQPWGSILRNWNFLAVTHPGYMAFLTYDEVKARLQKYSTKPGSYIFRLSCTRLGQWAIGYVTGDGNILQTIPHNKPLFQALIDGSREGFYLYPDGRSYNPDLTGLCEPTPHDHIKVTQEQYELYCEMGSTFQLCKICAENDKDVKIEPCGHLMCTSCLTAWQESDGQGCPFCRCEIKGTEPIIVDPFDPRDEGSRCCSIIDPFGMPMLDLDDDDDREESLMMNRLANVRKCTDRQNSPVTSPGSSPLAQRRKPQPDPLQIPHLSLPPVPPRLDLIQKGIVRSPCGSPTGSPKSSPCMVRKQDKPLPAPPPPLRDPPPPPPERPPPIPPDNRLSRHIHHVESVPSRDPPMPLEAWCPRDVFGTNQLVGCRLLGEGSPKPGITASSNVNGRHSRVGSDPVLMRKHRRHDLPLEGAKVFSNGHLGSEEYDVPPRLSPPPPVTTLLPSIKCTGPLANSLSEKTRDPVEEDDDEYKIPSSHPVSLNSQPSHCHNVKPPVRSCDNGHCMLNGTHGPSSEKKSNIPDLSIYLKGDVFDSASDPVPLPPARPPTRDNPKHGSSLNRTPSDYDLLIPPLGEDAFDALPPSLPPPPPPARHSLIEHSKPPGSSSRPSSGQDLFLLPSDPFVDLASGQVPLPPARRLPGENVKTNRTSQDYDQLPSCSDGSQAPARPPKPRPRRTAPEIHHRKPHGPEAALENVDAKIAKLMGEGYAFEEVKRALEIAQNNVEVARSILREFAFPPPVSPRLNL
- fold weaker FRET signal than the RARα/RXRα interaction: ~4 fold
